From patent US10456446B2, “Use of human small leucine zipper protein in osteogenesis procedure” (Korea University Research and Business Foundation, priority 2013, dated 2019) come the findings set out here.

The target of assay [1] is T1, NCoR1 (Homo sapiens, UniProt O75376).
T1 construct: endogenous in cells; host or cells: 293T
Put plainly: Immunoprecipitation of sLZIP with anti-NCoR1 antibodies in 293T cells. The class given is binding. Conditions: 10 nM RZD for 24 hours. As to the method:
293T cells were obtained and washed with cold PBS. The cells were re-suspended in an IP lysis buffer [25 mM of Tris-HCl (pH 7.4), 150 mM of NaCl, 1 mM of EDTA, 1% NP-40 and 5% glycerol, and a protease inhibitor]. A suspension was centrifuged at 16,000×g for 20 minutes at 4° C. Supernatants were collected and incubated with 0.5 μg of appropriate antibodies and 25 μl of protein A/G-agarose or a GST Sepharose 4B bead for 24 hours at 4° C. A protein complex was centrifuged at 1,000×g with a cold IP lysis buffer for 1 minute and washed five times. The final pellet was re-suspended in 50 μl of an SDS-sample buffer containing 5% β-mercaptoethanol and heated for 10 minutes at 100° C. A protein sample was isolated in SDS-PAGE (8 to 10%) and transferred to nitrocellulose membranes. Co-precipitated proteins were detected according to western blotting using specific antibodies.
For this purpose, 293T cells were transfected with GST-PPARγ2 and Flag-sLZIP and were treated or not treated with 10 nM of RZD for 24 hours. […] A protein complex was analyzed in SDS-PAGE, and immunoblotted with anti-GST and anti-Flag antibodies. […] The cell lysates were GST pull-down analyzed (FIG. 5C). […] The cell lysates were GST pull-down analyzed (FIG. 5D). […] A protein complex was analyzed in SDS-PAGE, and then immunoblotted with anti-NCoR1 and anti-Flag antibodies (FIG. 5E). […]

Assay [2] deals with T2, PPARγ2 (Homo sapiens, UniProt P37231).
T2 construct: expressed in transfected cells; host or cells: 293T
T2 sequence (P37231 1-505): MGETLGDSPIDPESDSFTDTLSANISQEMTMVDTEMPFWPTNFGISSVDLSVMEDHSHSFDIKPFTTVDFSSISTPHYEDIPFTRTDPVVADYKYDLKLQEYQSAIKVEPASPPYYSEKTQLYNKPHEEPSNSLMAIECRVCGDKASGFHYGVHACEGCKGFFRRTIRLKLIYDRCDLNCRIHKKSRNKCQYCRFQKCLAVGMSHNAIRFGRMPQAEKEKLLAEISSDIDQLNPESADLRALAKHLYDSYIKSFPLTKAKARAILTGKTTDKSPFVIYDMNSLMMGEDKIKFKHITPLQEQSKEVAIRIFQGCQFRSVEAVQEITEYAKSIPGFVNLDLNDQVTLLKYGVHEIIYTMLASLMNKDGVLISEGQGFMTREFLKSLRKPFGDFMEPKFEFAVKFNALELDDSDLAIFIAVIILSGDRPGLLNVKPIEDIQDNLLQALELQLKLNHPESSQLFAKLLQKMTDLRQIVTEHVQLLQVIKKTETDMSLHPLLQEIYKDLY
The assay is described as follows: Fluorescence microscopy, subcellular localization with PPARγ2 in C3H10T1/2 cells. Format: cell-based. To be noted: GFP-PPARγ2 and Flag-sLZIP in C3H10T1/2 cells. As to the method:
C3H10T1/2 cells were transiently ci-transfected with Flag-sLZIP, GFP-PPARγ2 or GFP-sLZIP, and HDAC3 was grown on cover slip. After 24 hours, the cells were fixed with 4% paraformaldehyde for 10 minutes and permeabilized 0.2% Triton-X 100 for 5 minutes. The cells were incubated with 1% BSA for one hour, and then incubated with anti-Flag and anti-HDAC3 antibodies overnight at 4° C. The cells were washed with PBS, and then were incubated with Texas Red-labeled antibodies for 2 hours. A cover slide was washed with PBS, and mounted on and examined using a LSM 510 META confocal microscopy (Carl Zeiss, Jena, Germany).
In order to examine whether the transcriptional activity of PPARγ2 is regulated by interaction with sLZIP, interaction between sLZIP and PPARγ2 was examined. For this purpose, 293T cells were transfected with GST-sLZIP and Myc-PPARγ2. Cell lysates were obtained and GST pull-down analysis was performed using a glutathione 4B bead. A protein complex was analyzed in SDS-PAGE and then immunoblotted with specific antibodies (FIG. 2A). […] Proteins bound to the bead were analyzed in SDS-PAGE, and then immunoblotted with anti-PPARγ2 and anti-His antibodies (FIG. 2C). GFP-PPARγ2 and Flag-sLZIP constructs were expressed in C3H10T1/2 cells, and analyzed using mouse anti-Flag and Texas Red-labeled anti-mouse antibodies under a fluorescence microscope. […]

T1 sequence (O75376 whole entry): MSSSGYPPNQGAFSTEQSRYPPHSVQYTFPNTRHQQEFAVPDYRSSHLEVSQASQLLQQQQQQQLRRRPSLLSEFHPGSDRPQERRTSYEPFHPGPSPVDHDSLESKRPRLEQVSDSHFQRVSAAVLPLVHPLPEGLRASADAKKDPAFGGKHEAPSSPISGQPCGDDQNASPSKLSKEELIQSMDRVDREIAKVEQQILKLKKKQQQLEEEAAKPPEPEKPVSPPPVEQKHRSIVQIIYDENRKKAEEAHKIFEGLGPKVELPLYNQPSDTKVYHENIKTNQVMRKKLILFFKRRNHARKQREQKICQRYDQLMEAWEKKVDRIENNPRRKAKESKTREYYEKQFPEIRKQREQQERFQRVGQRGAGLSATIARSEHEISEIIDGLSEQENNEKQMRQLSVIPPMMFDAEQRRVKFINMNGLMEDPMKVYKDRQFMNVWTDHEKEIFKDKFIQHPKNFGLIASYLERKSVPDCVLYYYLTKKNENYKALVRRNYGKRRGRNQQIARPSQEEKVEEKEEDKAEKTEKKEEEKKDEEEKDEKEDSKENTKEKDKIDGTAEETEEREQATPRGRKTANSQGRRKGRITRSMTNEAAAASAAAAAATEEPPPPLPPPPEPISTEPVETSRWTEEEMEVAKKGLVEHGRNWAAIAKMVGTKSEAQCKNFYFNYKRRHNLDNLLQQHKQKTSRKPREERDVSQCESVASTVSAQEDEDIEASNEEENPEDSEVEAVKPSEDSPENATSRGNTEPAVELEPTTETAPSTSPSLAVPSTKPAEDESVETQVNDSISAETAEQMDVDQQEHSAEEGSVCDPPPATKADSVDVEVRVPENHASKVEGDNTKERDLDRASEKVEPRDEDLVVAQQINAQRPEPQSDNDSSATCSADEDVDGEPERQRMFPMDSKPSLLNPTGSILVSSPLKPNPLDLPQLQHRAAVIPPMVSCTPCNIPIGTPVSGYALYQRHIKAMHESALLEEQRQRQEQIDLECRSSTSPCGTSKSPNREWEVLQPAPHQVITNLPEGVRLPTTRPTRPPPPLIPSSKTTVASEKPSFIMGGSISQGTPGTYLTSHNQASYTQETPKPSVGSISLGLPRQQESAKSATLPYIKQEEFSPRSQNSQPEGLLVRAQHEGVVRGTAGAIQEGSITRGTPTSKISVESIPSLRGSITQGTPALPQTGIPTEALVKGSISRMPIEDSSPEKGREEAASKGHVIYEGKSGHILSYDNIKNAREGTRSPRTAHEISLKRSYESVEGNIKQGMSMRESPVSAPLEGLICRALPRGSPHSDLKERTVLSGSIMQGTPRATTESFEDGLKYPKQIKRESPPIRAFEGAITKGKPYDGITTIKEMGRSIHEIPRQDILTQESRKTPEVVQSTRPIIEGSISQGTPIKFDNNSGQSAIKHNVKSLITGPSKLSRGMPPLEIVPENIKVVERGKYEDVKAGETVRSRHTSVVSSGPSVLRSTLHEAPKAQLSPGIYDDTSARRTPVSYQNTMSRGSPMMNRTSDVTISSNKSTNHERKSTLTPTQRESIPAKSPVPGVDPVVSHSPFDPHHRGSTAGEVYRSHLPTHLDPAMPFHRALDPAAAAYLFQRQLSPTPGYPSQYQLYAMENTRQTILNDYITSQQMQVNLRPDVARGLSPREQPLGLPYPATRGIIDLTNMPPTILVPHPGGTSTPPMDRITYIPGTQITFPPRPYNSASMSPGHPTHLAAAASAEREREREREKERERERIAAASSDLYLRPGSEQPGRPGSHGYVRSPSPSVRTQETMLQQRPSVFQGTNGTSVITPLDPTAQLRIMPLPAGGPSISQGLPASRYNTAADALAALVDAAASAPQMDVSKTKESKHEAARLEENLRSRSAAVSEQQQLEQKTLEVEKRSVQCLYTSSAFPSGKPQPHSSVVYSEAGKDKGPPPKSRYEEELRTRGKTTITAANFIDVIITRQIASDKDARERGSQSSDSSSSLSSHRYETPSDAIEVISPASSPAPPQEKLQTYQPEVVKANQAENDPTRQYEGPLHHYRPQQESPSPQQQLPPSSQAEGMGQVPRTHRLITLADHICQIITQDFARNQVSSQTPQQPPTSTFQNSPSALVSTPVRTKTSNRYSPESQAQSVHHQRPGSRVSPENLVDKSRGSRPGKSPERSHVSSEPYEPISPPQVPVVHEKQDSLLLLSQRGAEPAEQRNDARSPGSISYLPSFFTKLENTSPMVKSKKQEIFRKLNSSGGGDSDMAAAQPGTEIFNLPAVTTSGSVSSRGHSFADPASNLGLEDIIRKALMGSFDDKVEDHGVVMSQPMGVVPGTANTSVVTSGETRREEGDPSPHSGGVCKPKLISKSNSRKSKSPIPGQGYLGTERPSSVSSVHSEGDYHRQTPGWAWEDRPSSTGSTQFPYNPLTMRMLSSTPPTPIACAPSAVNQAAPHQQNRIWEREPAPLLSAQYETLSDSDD

B1: sLZIP: human small leucine-zipper protein, isoform of LZIP, 354 amino acids, no transmembrane domain, GenBank FJ263669, SEQ ID NO: 1 (protein, listed as Homo sapiens)
chain: MELELDAGDQDLLAFLLEESGDLGTAPDEAVRAPLDWALPLSEVPSDWEVDDLLCSLLSPPASLNILSSSNPCLVHHDHTYSLPRETVSMDLESESCRKEGTQMTPQHMEELAEQEIARLVLTDEEKSLLEKEGLILPETLPLTKTEEQILKRVRRKIRNKRSAQESRRKKKVYVGGLESRVLKYTAQNMELQNKVQLLEEQNLSLLDQLRKLQAMVIEISNKTSSSSMYSSDTRGSLPAEHGVLSRQLRALPSEDPYQLELPALQSEVPKDSTHQWLDGSDCVLQAPGNTSCLLHYMPQAPSAEPPLEWPFPDLFSEPLCRGPILPLQANLTRKGGWLPTGSPSVILQDRYSG
As for B1, the “interaction with NCoR1” value in assay [1] is recorded as “slightly dissociated from sLZIP”. In assay [2], the “subcellular localization of sLZIP and PPARγ2” value is recorded as “localized in the nucleus together with PPARγ2”.
